Measured values published in the supplement of paper PMC9876800.

Tested on: peptide library, one residue held at a place counted from the S/T acceptor
Assay: relative phosphorylation of the sub-library (ratio to the mean residue at this position); human; higher = residue favoured
Conditions: K fixed; at +2
In short: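 In 384-well plates, purified recombinant kinases (human or orthologue constructs) were incubated for 90 min under kinase-specific conditions with 50 μM biotinylated degenerate peptide sub-libraries and 50 μM ATP spiked with γ-32P-ATP. Each sub-library fixed a single residue at one position around a central Ser/Thr. Relative sub-library phosphorylation, measured by phosphorimaging and densitometry of streptavidin membrane spots, is given as a ratio to the mean residue at that position.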

IKBKE, construct: Full length, sequence (Q14164 whole entry, looked up): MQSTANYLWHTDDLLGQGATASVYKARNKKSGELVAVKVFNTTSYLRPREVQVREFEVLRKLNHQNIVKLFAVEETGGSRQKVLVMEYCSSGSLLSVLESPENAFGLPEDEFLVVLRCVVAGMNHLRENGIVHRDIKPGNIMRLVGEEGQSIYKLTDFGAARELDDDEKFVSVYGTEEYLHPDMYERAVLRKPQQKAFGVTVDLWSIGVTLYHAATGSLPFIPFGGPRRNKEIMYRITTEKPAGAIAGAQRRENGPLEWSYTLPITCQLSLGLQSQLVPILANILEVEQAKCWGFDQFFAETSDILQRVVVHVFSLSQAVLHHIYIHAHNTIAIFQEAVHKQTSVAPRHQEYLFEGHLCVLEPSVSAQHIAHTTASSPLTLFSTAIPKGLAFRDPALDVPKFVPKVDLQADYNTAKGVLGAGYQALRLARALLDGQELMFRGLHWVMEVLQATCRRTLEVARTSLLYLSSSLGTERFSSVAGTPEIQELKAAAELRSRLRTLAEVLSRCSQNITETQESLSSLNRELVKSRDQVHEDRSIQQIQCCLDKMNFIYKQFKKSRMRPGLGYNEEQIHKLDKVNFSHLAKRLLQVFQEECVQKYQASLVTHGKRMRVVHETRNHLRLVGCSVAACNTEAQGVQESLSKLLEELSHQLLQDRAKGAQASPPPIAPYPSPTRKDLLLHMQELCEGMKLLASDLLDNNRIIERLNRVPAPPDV
NEK6, construct: Full length, sequence (Q9HC98 whole entry, looked up): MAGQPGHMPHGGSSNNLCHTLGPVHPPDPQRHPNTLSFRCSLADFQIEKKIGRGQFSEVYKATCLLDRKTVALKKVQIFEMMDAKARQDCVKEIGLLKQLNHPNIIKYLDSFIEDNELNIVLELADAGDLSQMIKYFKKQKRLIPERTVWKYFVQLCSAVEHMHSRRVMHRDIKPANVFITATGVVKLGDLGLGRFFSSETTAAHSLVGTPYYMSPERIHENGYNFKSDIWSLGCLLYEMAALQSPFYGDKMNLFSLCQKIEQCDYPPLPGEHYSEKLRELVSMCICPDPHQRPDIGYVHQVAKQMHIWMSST
TNIK, construct: aa1-314, sequence (Q9UKE5 1-314, looked up): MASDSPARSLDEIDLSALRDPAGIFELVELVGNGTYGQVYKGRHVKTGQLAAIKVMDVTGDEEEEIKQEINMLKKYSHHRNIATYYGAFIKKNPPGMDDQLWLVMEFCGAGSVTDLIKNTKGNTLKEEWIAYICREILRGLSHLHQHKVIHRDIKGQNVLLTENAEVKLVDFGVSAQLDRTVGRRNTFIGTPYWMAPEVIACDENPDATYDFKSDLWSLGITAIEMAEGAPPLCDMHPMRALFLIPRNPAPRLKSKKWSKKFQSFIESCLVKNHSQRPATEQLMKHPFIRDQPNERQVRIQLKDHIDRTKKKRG
SIK3, construct: aa1-307, sequence (Q9Y2K2 1-307, looked up): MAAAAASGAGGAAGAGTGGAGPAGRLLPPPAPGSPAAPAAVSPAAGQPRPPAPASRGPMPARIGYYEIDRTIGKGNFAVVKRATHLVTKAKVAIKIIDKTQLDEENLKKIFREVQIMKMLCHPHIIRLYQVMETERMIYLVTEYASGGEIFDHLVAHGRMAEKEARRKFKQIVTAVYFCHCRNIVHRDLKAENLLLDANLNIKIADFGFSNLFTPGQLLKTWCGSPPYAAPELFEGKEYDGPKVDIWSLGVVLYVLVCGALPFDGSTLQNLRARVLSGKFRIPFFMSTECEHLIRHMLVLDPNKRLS
CDK10, construct: Full length, sequence (Q15131 whole entry, looked up): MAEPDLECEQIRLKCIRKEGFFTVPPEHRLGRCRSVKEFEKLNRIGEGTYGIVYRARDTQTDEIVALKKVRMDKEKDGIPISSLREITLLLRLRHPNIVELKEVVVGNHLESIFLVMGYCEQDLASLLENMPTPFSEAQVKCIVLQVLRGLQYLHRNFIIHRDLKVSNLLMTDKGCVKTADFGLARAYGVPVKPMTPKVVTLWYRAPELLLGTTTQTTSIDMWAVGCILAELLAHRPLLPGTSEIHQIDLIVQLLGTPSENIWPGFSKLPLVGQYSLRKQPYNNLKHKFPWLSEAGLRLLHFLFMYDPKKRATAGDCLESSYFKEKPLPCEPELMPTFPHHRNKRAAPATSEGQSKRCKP
MAP4K5, construct: Full length, sequence (Q9Y4K4 whole entry, looked up): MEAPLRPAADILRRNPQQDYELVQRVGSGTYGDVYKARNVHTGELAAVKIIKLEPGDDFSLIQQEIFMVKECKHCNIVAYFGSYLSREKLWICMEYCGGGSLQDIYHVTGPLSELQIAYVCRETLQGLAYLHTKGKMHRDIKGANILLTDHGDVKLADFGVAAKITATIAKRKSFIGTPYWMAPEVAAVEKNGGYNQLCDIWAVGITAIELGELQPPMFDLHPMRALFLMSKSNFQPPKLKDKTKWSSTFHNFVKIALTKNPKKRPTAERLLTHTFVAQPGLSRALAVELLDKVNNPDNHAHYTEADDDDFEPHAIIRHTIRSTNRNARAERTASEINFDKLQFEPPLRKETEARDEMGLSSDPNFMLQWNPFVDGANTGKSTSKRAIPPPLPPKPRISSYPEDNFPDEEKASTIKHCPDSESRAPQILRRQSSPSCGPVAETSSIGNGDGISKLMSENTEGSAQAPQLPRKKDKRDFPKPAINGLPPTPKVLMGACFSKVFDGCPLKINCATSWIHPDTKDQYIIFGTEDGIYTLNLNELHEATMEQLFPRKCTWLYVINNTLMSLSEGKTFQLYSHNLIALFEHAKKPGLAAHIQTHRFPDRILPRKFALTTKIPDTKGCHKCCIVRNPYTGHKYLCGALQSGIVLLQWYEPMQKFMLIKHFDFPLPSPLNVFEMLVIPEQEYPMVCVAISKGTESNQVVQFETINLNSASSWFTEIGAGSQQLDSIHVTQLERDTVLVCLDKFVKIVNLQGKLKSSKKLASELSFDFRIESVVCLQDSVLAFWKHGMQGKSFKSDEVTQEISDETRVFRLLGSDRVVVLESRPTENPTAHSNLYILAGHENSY
SLK, construct: Full length, sequence (Q9H2G2 whole entry, looked up): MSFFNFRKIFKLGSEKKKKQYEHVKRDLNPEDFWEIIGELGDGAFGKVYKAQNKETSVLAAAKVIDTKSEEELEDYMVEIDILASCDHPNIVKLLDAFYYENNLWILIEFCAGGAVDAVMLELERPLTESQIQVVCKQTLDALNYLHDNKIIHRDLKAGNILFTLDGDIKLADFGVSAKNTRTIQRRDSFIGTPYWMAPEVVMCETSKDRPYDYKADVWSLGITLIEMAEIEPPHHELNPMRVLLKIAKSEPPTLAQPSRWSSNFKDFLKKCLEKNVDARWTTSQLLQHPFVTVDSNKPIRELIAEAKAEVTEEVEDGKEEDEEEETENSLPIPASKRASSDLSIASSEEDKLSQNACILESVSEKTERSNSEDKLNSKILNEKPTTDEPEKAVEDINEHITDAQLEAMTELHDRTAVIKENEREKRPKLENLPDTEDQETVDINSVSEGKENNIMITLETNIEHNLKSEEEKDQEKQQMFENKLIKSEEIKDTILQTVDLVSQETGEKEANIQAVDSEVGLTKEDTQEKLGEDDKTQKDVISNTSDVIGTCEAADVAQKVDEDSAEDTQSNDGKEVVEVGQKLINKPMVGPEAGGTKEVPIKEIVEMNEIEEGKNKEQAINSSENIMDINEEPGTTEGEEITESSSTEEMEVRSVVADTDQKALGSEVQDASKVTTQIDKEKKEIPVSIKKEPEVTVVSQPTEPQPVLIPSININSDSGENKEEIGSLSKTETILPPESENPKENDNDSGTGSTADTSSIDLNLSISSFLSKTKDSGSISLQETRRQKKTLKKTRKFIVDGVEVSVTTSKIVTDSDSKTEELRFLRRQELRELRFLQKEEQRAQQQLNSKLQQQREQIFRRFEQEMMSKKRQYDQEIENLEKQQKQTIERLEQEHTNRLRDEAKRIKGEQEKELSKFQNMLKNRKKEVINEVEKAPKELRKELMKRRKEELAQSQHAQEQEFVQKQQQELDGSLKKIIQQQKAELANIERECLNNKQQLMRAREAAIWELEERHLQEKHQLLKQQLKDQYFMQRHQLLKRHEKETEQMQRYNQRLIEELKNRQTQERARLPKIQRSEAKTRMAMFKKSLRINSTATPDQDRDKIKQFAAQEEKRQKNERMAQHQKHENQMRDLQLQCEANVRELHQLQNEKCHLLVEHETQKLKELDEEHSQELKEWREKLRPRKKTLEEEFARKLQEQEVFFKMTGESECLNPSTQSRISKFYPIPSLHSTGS

In order of rising relative phosphorylation:
1. SIK3, construct: aa1-307 (from UniProt Q9Y2K2)  0.578
2. IKBKE, construct: Full length (from UniProt Q14164)  0.714
3. NEK6, construct: Full length (from UniProt Q9HC98)  1.61
4. SLK, construct: Full length (from UniProt Q9H2G2)  2.1
5. MAP4K5, construct: Full length (from UniProt Q9Y4K4)  2.46
6. TNIK, construct: aa1-314 (from UniProt Q9UKE5)  2.49
7. CDK10, construct: Full length (from UniProt Q15131)  3.05

Same assay, conditions: K fixed; at +3

In order of falling relative phosphorylation:
1. TNIK, construct: aa1-314 (from UniProt Q9UKE5)  3.02
2. SLK, construct: Full length (from UniProt Q9H2G2)  2.23
3. PKN2, construct: aa501-984 (from UniProt Q16513)  1.85
4. MAP4K5, construct: Full length (from UniProt Q9Y4K4)  1.81
5. CDK10, construct: Full length (from UniProt Q15131)  1.66
6. NEK6, construct: Full length (from UniProt Q9HC98)  1.4
7. SIK3, construct: aa1-307 (from UniProt Q9Y2K2)  0.728
8. IKBKE, construct: Full length (from UniProt Q14164)  0.471

Same assay, conditions: K fixed; at +4

In order of rising relative phosphorylation:
1. SIK3, construct: aa1-307 (from UniProt Q9Y2K2)  0.56
2. IKBKE, construct: Full length (from UniProt Q14164)  0.672
3. SLK, construct: Full length (from UniProt Q9H2G2)  1.47
4. NEK6, construct: Full length (from UniProt Q9HC98)  1.78
5. MAP4K5, construct: Full length (from UniProt Q9Y4K4)  1.8
6. PKN2, construct: aa501-984 (from UniProt Q16513)  1.94
7. CDK10, construct: Full length (from UniProt Q15131)  2.1
8. TNIK, construct: aa1-314 (from UniProt Q9UKE5)  2.18

Same assay, conditions: K fixed; at -1

In order of falling relative phosphorylation:
1. SLK, construct: Full length (from UniProt Q9H2G2)  3.28
2. CDK10, construct: Full length (from UniProt Q15131)  2.08
3. SIK3, construct: aa1-307 (from UniProt Q9Y2K2)  1.77
4. PKN2, construct: aa501-984 (from UniProt Q16513)  1.66
5. MAP4K5, construct: Full length (from UniProt Q9Y4K4)  1.43
6. TNIK, construct: aa1-314 (from UniProt Q9UKE5)  1.36
7. NEK6, construct: Full length (from UniProt Q9HC98)  1.22
8. IKBKE, construct: Full length (from UniProt Q14164)  0.849

Same assay, conditions: K fixed; at -2

In order of falling relative phosphorylation:
1. PKN2, construct: aa501-984 (from UniProt Q16513)  2.17
2. CDK10, construct: Full length (from UniProt Q15131)  1.64
3. SLK, construct: Full length (from UniProt Q9H2G2)  1.41
4. SIK3, construct: aa1-307 (from UniProt Q9Y2K2)  1.17
5. TNIK, construct: aa1-314 (from UniProt Q9UKE5)  0.919
6. MAP4K5, construct: Full length (from UniProt Q9Y4K4)  0.905
7. NEK6, construct: Full length (from UniProt Q9HC98)  0.663
8. IKBKE, construct: Full length (from UniProt Q14164)  0.563

Same assay, conditions: K fixed; at -3

In order of rising relative phosphorylation:
1. NEK6, construct: Full length (from UniProt Q9HC98)  0.48
2. IKBKE, construct: Full length (from UniProt Q14164)  0.819
3. TNIK, construct: aa1-314 (from UniProt Q9UKE5)  1.44
4. CDK10, construct: Full length (from UniProt Q15131)  1.66
5. MAP4K5, construct: Full length (from UniProt Q9Y4K4)  2.01
6. SIK3, construct: aa1-307 (from UniProt Q9Y2K2)  2.13
7. PKN2, construct: aa501-984 (from UniProt Q16513)  2.37
8. SLK, construct: Full length (from UniProt Q9H2G2)  2.4

Same assay, conditions: K fixed; at -4

In order of rising relative phosphorylation:
1. NEK6, construct: Full length (from UniProt Q9HC98)  0.837
2. IKBKE, construct: Full length (from UniProt Q14164)  0.88
3. SLK, construct: Full length (from UniProt Q9H2G2)  1.06
4. TNIK, construct: aa1-314 (from UniProt Q9UKE5)  1.17
5. SIK3, construct: aa1-307 (from UniProt Q9Y2K2)  1.21
6. MAP4K5, construct: Full length (from UniProt Q9Y4K4)  1.25
7. PKN2, construct: aa501-984 (from UniProt Q16513)  1.82
8. CDK10, construct: Full length (from UniProt Q15131)  2.23

Same assay, conditions: K fixed; at -5

In order of falling relative phosphorylation:
1. CDK10, construct: Full length (from UniProt Q15131)  2.24
2. SLK, construct: Full length (from UniProt Q9H2G2)  1.48
3. PKN2, construct: aa501-984 (from UniProt Q16513)  1.43
4. MAP4K5, construct: Full length (from UniProt Q9Y4K4)  1.3
5. TNIK, construct: aa1-314 (from UniProt Q9UKE5)  1.2
6. SIK3, construct: aa1-307 (from UniProt Q9Y2K2)  1.02
7. IKBKE, construct: Full length (from UniProt Q14164)  0.927
8. NEK6, construct: Full length (from UniProt Q9HC98)  0.849

Same assay, conditions: L fixed; at +1

In order of falling relative phosphorylation:
1. MAP4K5, construct: Full length (from UniProt Q9Y4K4)  3.52
2. IKBKE, construct: Full length (from UniProt Q14164)  3.41
3. TNIK, construct: aa1-314 (from UniProt Q9UKE5)  2.4
4. SLK, construct: Full length (from UniProt Q9H2G2)  2.29
5. PKN2, construct: aa501-984 (from UniProt Q16513)  1.25
6. SIK3, construct: aa1-307 (from UniProt Q9Y2K2)  1.21
7. NEK6, construct: Full length (from UniProt Q9HC98)  0.886
8. CDK10, construct: Full length (from UniProt Q15131)  0.296

Same assay, conditions: L fixed; at +2

In order of rising relative phosphorylation:
1. NEK6, construct: Full length (from UniProt Q9HC98)  0.443
2. SLK, construct: Full length (from UniProt Q9H2G2)  0.478
3. MAP4K5, construct: Full length (from UniProt Q9Y4K4)  0.673
4. CDK10, construct: Full length (from UniProt Q15131)  0.683
5. TNIK, construct: aa1-314 (from UniProt Q9UKE5)  0.685
6. PKN2, construct: aa501-984 (from UniProt Q16513)  0.927
7. SIK3, construct: aa1-307 (from UniProt Q9Y2K2)  0.987
8. IKBKE, construct: Full length (from UniProt Q14164)  1.08

Same assay, conditions: L fixed; at +3

In order of rising relative phosphorylation:
1. MAP4K5, construct: Full length (from UniProt Q9Y4K4)  0.672
2. NEK6, construct: Full length (from UniProt Q9HC98)  0.767
3. TNIK, construct: aa1-314 (from UniProt Q9UKE5)  0.777
4. SIK3, construct: aa1-307 (from UniProt Q9Y2K2)  0.824
5. IKBKE, construct: Full length (from UniProt Q14164)  0.887
6. PKN2, construct: aa501-984 (from UniProt Q16513)  0.946
